The values that follow are results of earlier work, collected in article PMC7618755.

The target of series [1] is CD80 (Homo sapiens) (UniProt P33681).
Series [2] deals with PD-L1 (Homo sapiens) (UniProt Q9NZQ7).
UniProt Q9NZQ7, sequence (Q9NZQ7 19-238): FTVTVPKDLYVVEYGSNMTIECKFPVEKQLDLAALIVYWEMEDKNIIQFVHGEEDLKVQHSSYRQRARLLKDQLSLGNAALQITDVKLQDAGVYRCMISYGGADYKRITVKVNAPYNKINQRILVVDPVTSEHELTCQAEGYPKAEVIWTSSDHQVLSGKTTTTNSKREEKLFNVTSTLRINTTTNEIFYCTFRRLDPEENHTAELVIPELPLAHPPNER

Turning to CD80 (from UniProt P33681), the dissociation constant Kd (usually the concentration at which binding is half-saturated) in series [1] was 35 µM; in series [2] it was 20 µM.
